Measurements reported in PMC13124150, “Interrogating the structure and function of the human voltage-gated proton channel (hHv1) with a fluorescent noncanonical amino acid” (eLife, 2026).

Molecular target: the molecule itself
Assay: SEC; SEC-cleaned No TAG hHv1 injected at several concentrations on an ENrich SEC 650 column in Buffer-H2 (50 mM Tris, 150 mM NaCl, 12 mM Anz3-12, pH 8.0); compared with a run in denaturing buffer (50 mM Tris, pH 8.0, 150 mM NaCl, 0.2% SDS); Ex/Em = 280/350 nm

B1: hHv1-Cysless (His-EK-hHv1-C107A-C249A), human voltage-gated proton channel (natural protein, UniProt Q96D96 1-273, looked up)
chain: MATWDEKAVTRRAKVAPAERMSKFLRHFTVVGDDYHAWNINYKKWENEEEEEEEEQPPPTPVSGEEGRAAAPDVAPAPGPAPRAPLDFRGMLRKLFSSHRFQVIIIALVVLDALLVLAELILDLKIIQPDKNNYAAMVFHYMSITILVFFMMEIIFKLFVFRLEFFHHKFEILDAVVVVVSFILDIVLLFQEHQFEALGLLILLRLWRVARIINGIIISVKTRSERQLLRLKQMNVQLAAKIQHLEFSASEKEQEIERLNKLLRQHGLLGEVN
notes: human voltage-gated proton channel (hHv1), full-length, with C107A and C249A (Cysless); Construct name His-EK-hHv1 in pET15-b; 'EK' between the His tag and hHv1 is probably an enterokinase site (surmised); no cleavage step is described; also called No TAG; control; source: E. coli BL21-Gold(DE3), purified (Ni-NTA in Anzergent 3-12, FSEC)
With B1 the “stoichiometry N” value was 2.
